Results: article PMC6776665, “A tri-ionic anchor mechanism drives Ube2N-specific recruitment and K63-chain ubiquitination in TRIM ligases” (Nature Communications, 2019)

Assays:
[1] = target: the molecule itself; assay: crystal structure; T21-R with Ube2N^C87K/K92A~Ub, 2.8 Å, space group P1, two complexes in the asymmetric unit (2xT21-R, 2xUbe2N~Ub)
ubiquitin (WT) = target: T1, ubiquitin (WT) (UniProt P0CG48 1-76); assay: as above; conditions: both partners purified
T1 construct: WT ubiquitin, the cut product of the ubiquitin precursor (G76 printed as the residue linked to Ube2N); In the rows of the crystal structure it is the ubiquitin moiety of the conjugate m8, linked by G76 to Ube2N K87; source: E. coli Rosetta 2 DE3, purified (perchloric acid precipitation, cation exchange, SEC)

binding result (ubiquitin (WT)): binds
B1: TRIM21-RING (residue 1-85) (domain or fragment)
chain: GSHMASAARLTMMWEEVTCPICLDPFVEPVSIECGHSFCQECISQVGKGGGSVCPVCRQRFLLKNLRPNRQLANMVNNLKEISQEARE
notes: tripeptide scar left at the N-terminus after cleavage of the GST tag; TRIM21 RING domain (T21-R), residues 1-85; Wild-type RING; a RING dimer in the crystal (2xT21-R and 2xUbe2N~Ub in the asymmetric unit); also called T21-R; TRIM21 RING domain; source: E. coli C41 DE3 or BL21 DE3, purified (glutathione sepharose, tag cleaved on beads, SEC); not shown: GST, N-terminal, cleaved
binding result [1]: binds
